Key:
[1] = target: HLA-DR2 (a mix of DRB1*1501 and DRB5*0101) (Homo sapiens, UniProt P01903+P01911+Q30154); experiment: DELFIA competitive binding assay, solubilized HLA-DR2; conditions: in words, from IC50 / plot of 1/IC50
Description: Measurement of the IC50 is preferably done by europium-streptavidin dissociation-enhanced lenthanide fluoroimmunoassay (DELFIA) and the IC50 typically calculated by four parameter fit analysis with the software program SOFTmax Pro.

[2] = test system: HLA-DR3 (a mix of DRB1*0301 and DRB3*0101); experiment: DELFIA competitive binding assay, solubilized HLA-DR3; parameters: species or system human; conditions: in words, from IC50
Description: The sequence of the AChRα subunit is shown with each of the transmembrane regions (M1-M4) indicated by a shaded box.) Ten-fold dilutions (preferably 1-100,000 nM) of unlabeled AChRα peptides were co-incubated at pH 5.5 with the biotinylated myelin basic protein peptide MBP 84-102, and the IC50 of binding to solubilized HLA-DR2 (a mix of DRB1*1501 and DRB5*0101) or HLA-DR3 (a mix of DRB1*0301 and DRB3*0101) was measured. Measurement of the IC50 is preferably done by europium-streptavidin dissociation-enhanced lenthanide fluoroimmunoassay (DELFIA) and the IC50 typically calculated by four parameter fit analysis with the software program SOFTmax Pro. FIG. 2 lists the IC50s of each AChRα peptide binding to HLA-DR2 and HLA-DR3.

Row | Substance | relative affinity for HLA-DR2 [1] | affinity for HLA-DR3 [2]
1 | AChRα 113-126: synthetic peptide fragment of the acetylcholine receptor α subunit, residues 113-126 (TGHITWTPPAIFKS) | high relative affinity | –
2 | AChRα 145-163: synthetic peptide fragment of the acetylcholine receptor α subunit, residues 145-163 (KLGTWTYDGSVVAINPESD) | – | high affinity
3 | AChRα 195-212: synthetic peptide fragment of the acetylcholine receptor α subunit, residues 195-212 | – | high affinity
4 | AChRα 310-327: synthetic peptide fragment of the acetylcholine receptor α subunit, residues 310-327 (NWVRKVFIDTIPNIMFFS) | high relative affinity | –
5 | AChRα 419-437: synthetic peptide fragment of the acetylcholine receptor α subunit, residues 419-437 (IIGTLAVFAGRLIELNQQG) | high relative affinity | –

Reference: patent publication US20050048066A1, “Identification of potential immunodominant acetylcholine receptor alpha subunit” (priority 2000, published 2005)
